Reference: publication PMC4427171
Where two headings read alike, the source gives them in different places.

What was measured:
[1] = target: PfOPRTase 1–218(Δ37–58)-H6 (Plasmodium falciparum) (UniProt Q8I3Y0); assay: crystal structure; hanging drop, 100 mM ammonium sulfate, 30% PEG 3350, 277 K; protein at 30 mg/ml; space group P212121, eight chains (four catalytic dimers) in the asymmetric unit
[2] = target: PfOPRTase 1–218(Δ37–58)-H6 (Plasmodium falciparum) (UniProt Q8I3Y0); assay: as above; remark: listed apart in the source

PfOPRTase 1–218(Δ37–58)-H6 (from UniProt Q8I3Y0 1-218) (enzyme)
stoichiometry N [1]: 2
stoichiometry N [2]: 4
